B1: LINE1-mini (parent)
chain: GGCAGAGCUCAACACAGCGUGGCAAAGUGGCUGUGGCUAGACUGCC

The variants in the data set derive from B1. The experiment in a line: self-cleavage, relative activity (ratio to wild type); higher = more cleavage; in vitro, sequencing; the parent is a self-cleaving ribozyme.
As to GGCAGUGCUCAACACAGCGUGGCAAAGUGGCUGUGGCUAGACUGCG [A6U C46G], the self-cleavage turned out to be 0.41.

Consider GGCAGUGCUCAACACAGCGUGGCAAAGUGGCUGUGGCUAGACUGUC [A6U C45U], for which the self-cleavage was determined as 1.18.

On to GGCAGUGCUCAACACAGCGUGGCAAAGUGGCUGUGGCUAGACUGAC [A6U C45A], for which the self-cleavage came out at 0.66.

Turning to GGCAGUGCUCAACACAGCGUGGCAAAGUGGCUGUGGCUAGACUGGC [A6U C45G], the self-cleavage amounted to 0.3.

As for GGCAGAACUCAACACAGCGUGGCAAAGUGGCUGUGGCUAGACUGCC [G7A], the self-cleavage was 0.2.

For GGCAGUGCUCAACACAGCGUGGCAAAGUAGCUGUGGCUAGACUGCC [A6U G29A], the self-cleavage is 0.79.

With GGCAGUGCUCAACACAGCGUGGCAAAGUCGCUGUGGCUAGACUGCC [A6U G29C], the self-cleavage was 0.34.

With GGCAGUGCUCAACACAGCGUGGCAAAGUUGCUGUGGCUAGACUGCC [A6U G29U], the self-cleavage was found to be 0.66.

For GGCAGUGCUCAACACAGCGUGGCAAAGUGGCUGGGGCUAGACUGCC [A6U U34G], the self-cleavage turned out to be 0.28.

As for GGCAGUGCUCAACACAGCGUGGCAAAGUGGCUGCGGCUAGACUGCC [A6U U34C], the self-cleavage came out at 0.12.

In the case of GGCAGUGCUCAACACAGCGUGGCAAAGUGGCUGAGGCUAGACUGCC [A6U U34A], the self-cleavage was 0.06.

In the case of GGCAGUGCUCAACACAGCGUGGCAAAGUGGCUGUGGUUAGACUGCC [A6U C37U], the self-cleavage was 0.07.

As to GGCAGUGCUCAACACAGCGUGGCAAAGUGGCUGUGGAUAGACUGCC [A6U C37A], the self-cleavage was determined as 0.08.

Regarding GGCAGUGCUCAACACAGCGUGGCAAAGUGGCUGUGGGUAGACUGCC [A6U C37G], the self-cleavage is 0.04.

For GGCAGUGCUCAACACACCGUGGCAAAGUGGCUGUGGCUAGACUGCC [A6U G17C], the self-cleavage is 0.59.

For GGCAGUGCUCAACACAACGUGGCAAAGUGGCUGUGGCUAGACUGCC [A6U G17A], the self-cleavage was 0.11.

As for GGCAGUGCUCAACACAUCGUGGCAAAGUGGCUGUGGCUAGACUGCC [A6U G17U], the self-cleavage stood at 0.26.

GGCAGAACUCAACACAGCGUGGCCAAGUGGCUGUGGCUAGACUGCC [G7A A24C]: the self-cleavage was 0.12.

In the case of GGCAGAACUCAACACAGCGUGGCUAAGUGGCUGUGGCUAGACUGCC [G7A A24U], the self-cleavage came out at 0.16.

Take GGCAGAACUCAACACAGCGUGGCGAAGUGGCUGUGGCUAGACUGCC [G7A A24G]: the self-cleavage came out at 0.16.

For the variant GGCAGAACUCAACACAGCGUGGCAACGUGGCUGUGGCUAGACUGCC [G7A A26C], the self-cleavage stood at 0.18.

Consider GGCAGAACUCAACACAGCGUGGCAAUGUGGCUGUGGCUAGACUGCC [G7A A26U], for which the self-cleavage was determined as 0.21.

In the case of GGCAGAACUCAACACAGCGUGGCAAGGUGGCUGUGGCUAGACUGCC [G7A A26G], the self-cleavage was 0.24.

As to GGCAGAACUCAACACGGCGUGGCAAAGUGGCUGUGGCUAGACUGCC [G7A A16G], the self-cleavage came out at 0.28.

For GGCAGAACUCAACACCGCGUGGCAAAGUGGCUGUGGCUAGACUGCC [G7A A16C], the self-cleavage was 0.13.

Turning to GGCAGAACUCAACACUGCGUGGCAAAGUGGCUGUGGCUAGACUGCC [G7A A16U], the self-cleavage was 0.32.

With GGCAGUGCUCAACACAGCGUGGCAAAGUGGCUGUGGCAAGACUGCC [A6U U38A], the self-cleavage worked out at 0.23.

Regarding GGCAGUGCUCAACACAGCGUGGCAAAGUGGCUGUGGCGAGACUGCC [A6U U38G], the self-cleavage was determined as 0.04.

GGCAGUGCUCAACACAGCGUGGCAAAGUGGCUGUGGCCAGACUGCC [A6U U38C]: the self-cleavage is 0.27.

As to GGCAGAACUCAACGCAGCGUGGCAAAGUGGCUGUGGCUAGACUGCC [G7A A14G], the self-cleavage was 0.24.

GGCAGAACUCAACUCAGCGUGGCAAAGUGGCUGUGGCUAGACUGCC [G7A A14U]: the self-cleavage is 0.16.

Consider GGCAGAACUCAACCCAGCGUGGCAAAGUGGCUGUGGCUAGACUGCC [G7A A14C], for which the self-cleavage was 0.5.

Regarding GGCAGUGCUCAACACAGCGUGGCAAAGUGGCUGUGGCUAUACUGCC [A6U G40U], the self-cleavage was determined as 0.3.

Consider GGCAGUGCUCAACACAGCGUGGCAAAGUGGCUGUGGCUAAACUGCC [A6U G40A], for which the self-cleavage came out at 0.35.

With GGCAGUGCUCAACACAGCGUGGCAAAGUGGCUGUGGCUACACUGCC [A6U G40C], the self-cleavage is 0.15.

For the variant GGCAGUGCUCAACACAGCGUUGCAAAGUGGCUGUGGCUAGACUGCC [A6U G21U], the self-cleavage is 0.76.

GGCAGUGCUCAACACAGCGUCGCAAAGUGGCUGUGGCUAGACUGCC [A6U G21C]: the self-cleavage was determined as 0.52.

For GGCAGUGCUCAACACAGCGUAGCAAAGUGGCUGUGGCUAGACUGCC [A6U G21A], the self-cleavage was 2.16.

Turning to GGCAGUGCUCAACACAGCGUGGCAAAGUGGCUGUGGCUAGACCGCC [A6U U43C], the self-cleavage was 0.51.

Take GGCAGUGCUCAACACAGCGUGGCAAAGUGGCUGUGGCUAGACGGCC [A6U U43G]: the self-cleavage turned out to be 0.08.

Turning to GGCAGUGCUCAACACAGCGUGGCAAAGUGGCUGUGGCUAGACAGCC [A6U U43A], the self-cleavage came to 0.13.

Turning to GGCAGUGCACAACACAGCGUGGCAAAGUGGCUGUGGCUAGACUGCC [A6U U9A], the self-cleavage is 0.17.

Take GGCAGUGCGCAACACAGCGUGGCAAAGUGGCUGUGGCUAGACUGCC [A6U U9G]: the self-cleavage amounted to 0.15.

Turning to GGCAGUGCCCAACACAGCGUGGCAAAGUGGCUGUGGCUAGACUGCC [A6U U9C], the self-cleavage was 0.08.

In the case of GGCAGUGCUCAACACAGCGUGGAAAAGUGGCUGUGGCUAGACUGCC [A6U C23A], the self-cleavage came out at 0.9.

Take GGCAGUGCUCAACACAGCGUGGUAAAGUGGCUGUGGCUAGACUGCC [A6U C23U]: the self-cleavage worked out at 0.89.

In the case of GGCAGUGCUCAACACAGCGUGGGAAAGUGGCUGUGGCUAGACUGCC [A6U C23G], the self-cleavage turned out to be 0.46.

On to GGCAGAACUCCACACAGCGUGGCAAAGUGGCUGUGGCUAGACUGCC [G7A A11C], for which the self-cleavage came out at 0.03.

GGCAGAACUCGACACAGCGUGGCAAAGUGGCUGUGGCUAGACUGCC [G7A A11G]: the self-cleavage was determined as 0.02.

With GGCAGAACUCUACACAGCGUGGCAAAGUGGCUGUGGCUAGACUGCC [G7A A11U], the self-cleavage was determined as 0.03.

In the case of GGCAGUGCUCAACACAGCGUGUCAAAGUGGCUGUGGCUAGACUGCC [A6U G22U], the self-cleavage was 0.79.

In the case of GGCAGUGCUCAACACAGCGUGACAAAGUGGCUGUGGCUAGACUGCC [A6U G22A], the self-cleavage was 0.57.

Turning to GGCAGUGCUCAACACAGCGUGCCAAAGUGGCUGUGGCUAGACUGCC [A6U G22C], the self-cleavage worked out at 0.37.

Regarding GGCAGUGCUCAACACAGCGUGGCAAAGUGGCUGUGCCUAGACUGCC [A6U G36C], the self-cleavage came out at 0.25.

Consider GGCAGUGCUCAACACAGCGUGGCAAAGUGGCUGUGACUAGACUGCC [A6U G36A], for which the self-cleavage was found to be 0.26.

As to GGCAGUGCUCAACACAGCGUGGCAAAGUGGCUGUGUCUAGACUGCC [A6U G36U], the self-cleavage worked out at 0.08.

(Values after the RNAGym collection of RNA variant scans (doi:10.7554/elife.90254).)
